B1: GpH7-B3 variant A330_05P/GpL16-k0 (antibody, human IgG1, kappa)
heavy: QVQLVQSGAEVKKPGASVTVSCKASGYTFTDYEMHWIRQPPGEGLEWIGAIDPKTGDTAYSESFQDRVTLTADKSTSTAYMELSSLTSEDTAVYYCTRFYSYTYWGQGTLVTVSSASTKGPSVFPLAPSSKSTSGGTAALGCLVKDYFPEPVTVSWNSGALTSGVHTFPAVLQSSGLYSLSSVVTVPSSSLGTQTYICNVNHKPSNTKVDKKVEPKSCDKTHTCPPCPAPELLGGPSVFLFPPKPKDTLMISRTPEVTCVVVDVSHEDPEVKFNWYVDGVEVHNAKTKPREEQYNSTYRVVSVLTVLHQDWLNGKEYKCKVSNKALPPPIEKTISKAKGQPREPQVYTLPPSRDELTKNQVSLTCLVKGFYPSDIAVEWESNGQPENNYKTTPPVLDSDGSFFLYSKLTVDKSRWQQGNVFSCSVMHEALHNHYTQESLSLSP
light: DIVMTQSPLSLPVTPGEPASISCQASESLVHSNRNTYLHWYLQKPGQSPQLLIYKVSNRFSGVPDRFSGSGSGTDFTLKISRVEAEDVGVYYCSQNTHVPPTFGQGTKVEIERTVAAPSVFIFPPSDEQLKSGTASVVCLLNNFYPREAKVQWKVDNALQSGNSQESVTEQDSKDSTYSLSSTLTLSKADYEKHKVYACEVTHQGLSSPVTKSFNRGEC
notes: both H chains altered; also called Ho Ab A330_05P
B2: GpH7-B3 variant E333_03V/GpL16-k0 (antibody, human IgG1, kappa)
heavy: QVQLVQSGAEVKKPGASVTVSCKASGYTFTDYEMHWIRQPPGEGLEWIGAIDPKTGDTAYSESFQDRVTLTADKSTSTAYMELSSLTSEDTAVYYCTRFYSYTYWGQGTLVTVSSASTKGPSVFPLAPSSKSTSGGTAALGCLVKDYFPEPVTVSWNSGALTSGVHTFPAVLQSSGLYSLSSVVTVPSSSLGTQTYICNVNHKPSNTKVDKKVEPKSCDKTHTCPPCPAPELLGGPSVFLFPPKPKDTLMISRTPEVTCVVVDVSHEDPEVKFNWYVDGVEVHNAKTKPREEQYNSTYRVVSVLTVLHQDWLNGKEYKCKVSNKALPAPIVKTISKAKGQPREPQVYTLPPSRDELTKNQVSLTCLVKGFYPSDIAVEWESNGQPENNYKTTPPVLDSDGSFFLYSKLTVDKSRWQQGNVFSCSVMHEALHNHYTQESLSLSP
light: B1 light
notes: both H chains altered; also called Ho Ab E333_03V
B3: GpH7-B3 variant E333_20W/GpL16-k0 (antibody, human IgG1, kappa)
heavy: not shown
light: B1 light
notes: both H chains altered; also called Ho Ab E333_20W
B4: GpH7-B3 variant L234_09D/GpL16-k0 (antibody, human IgG1, kappa)
heavy: not shown
light: B1 light
notes: both H chains altered; also called Ho Ab L234_09D
B5: GpH7-B3 variant L234_04F/GpL16-k0 (antibody, human IgG1, kappa)
heavy: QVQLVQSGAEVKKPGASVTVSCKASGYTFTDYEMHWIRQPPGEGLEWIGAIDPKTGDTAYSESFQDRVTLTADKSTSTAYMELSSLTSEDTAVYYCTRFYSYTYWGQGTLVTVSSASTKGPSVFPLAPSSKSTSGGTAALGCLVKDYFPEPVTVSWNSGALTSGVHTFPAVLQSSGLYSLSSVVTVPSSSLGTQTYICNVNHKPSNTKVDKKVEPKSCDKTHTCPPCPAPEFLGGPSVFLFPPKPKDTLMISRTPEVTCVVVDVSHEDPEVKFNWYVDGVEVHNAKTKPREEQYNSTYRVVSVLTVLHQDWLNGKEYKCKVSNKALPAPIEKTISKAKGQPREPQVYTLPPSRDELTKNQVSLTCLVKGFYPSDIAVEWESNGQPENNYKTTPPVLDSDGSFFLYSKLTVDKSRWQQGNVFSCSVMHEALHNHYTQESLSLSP
light: B1 light
notes: both H chains altered; also called Ho Ab L234_04F
B6: GpH7-B3 variant H268_18N/GpL16-k0 (antibody, human IgG1, kappa)
heavy: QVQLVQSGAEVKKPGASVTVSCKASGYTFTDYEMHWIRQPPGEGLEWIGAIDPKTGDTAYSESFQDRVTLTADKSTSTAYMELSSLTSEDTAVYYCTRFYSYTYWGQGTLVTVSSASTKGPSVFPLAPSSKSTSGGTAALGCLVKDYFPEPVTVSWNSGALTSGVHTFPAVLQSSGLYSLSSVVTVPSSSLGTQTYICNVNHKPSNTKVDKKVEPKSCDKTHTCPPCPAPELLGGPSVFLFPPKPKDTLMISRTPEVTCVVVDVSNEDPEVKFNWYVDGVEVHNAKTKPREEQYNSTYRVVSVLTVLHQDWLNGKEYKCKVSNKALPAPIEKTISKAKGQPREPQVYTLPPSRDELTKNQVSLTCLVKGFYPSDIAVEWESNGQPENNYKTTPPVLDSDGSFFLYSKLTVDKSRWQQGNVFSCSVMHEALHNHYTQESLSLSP
light: B1 light
notes: both H chains altered; also called Ho Ab H268_18N
B7: GpH7-B3 variant P271_01G/GpL16-k0 (antibody, human IgG1, kappa)
heavy: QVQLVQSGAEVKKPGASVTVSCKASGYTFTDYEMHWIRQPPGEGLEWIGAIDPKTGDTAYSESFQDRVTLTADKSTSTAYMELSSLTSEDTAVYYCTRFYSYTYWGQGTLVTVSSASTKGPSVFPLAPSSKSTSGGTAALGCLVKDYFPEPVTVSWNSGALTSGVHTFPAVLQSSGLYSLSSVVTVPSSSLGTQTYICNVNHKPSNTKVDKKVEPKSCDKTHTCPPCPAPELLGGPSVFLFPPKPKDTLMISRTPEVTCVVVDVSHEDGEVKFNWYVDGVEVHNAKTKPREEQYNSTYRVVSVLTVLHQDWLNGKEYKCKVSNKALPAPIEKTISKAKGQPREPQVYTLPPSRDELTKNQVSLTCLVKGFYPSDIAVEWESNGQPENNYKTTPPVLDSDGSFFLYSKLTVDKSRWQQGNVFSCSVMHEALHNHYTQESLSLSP
light: B1 light
notes: both H chains altered; also called Ho Ab P271_01G
B8: GpH7-B3 variant E333_13S/GpL16-k0 (antibody, human IgG1, kappa)
heavy: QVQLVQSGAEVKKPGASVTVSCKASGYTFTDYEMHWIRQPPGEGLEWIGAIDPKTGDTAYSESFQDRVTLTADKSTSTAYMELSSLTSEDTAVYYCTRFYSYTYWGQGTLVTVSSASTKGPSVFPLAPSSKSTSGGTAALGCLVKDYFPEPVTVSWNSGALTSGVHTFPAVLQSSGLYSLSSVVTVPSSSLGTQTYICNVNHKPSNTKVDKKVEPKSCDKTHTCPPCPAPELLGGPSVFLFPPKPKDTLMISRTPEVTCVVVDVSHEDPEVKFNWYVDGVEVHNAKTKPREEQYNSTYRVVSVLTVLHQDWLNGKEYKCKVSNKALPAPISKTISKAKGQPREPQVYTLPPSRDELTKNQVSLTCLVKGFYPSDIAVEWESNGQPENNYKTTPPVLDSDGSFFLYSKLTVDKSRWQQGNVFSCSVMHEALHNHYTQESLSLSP
light: B1 light
notes: both H chains altered; also called Ho Ab E333_13S
B9: GpH7-B3 variant I332_06M/GpL16-k0 (antibody, human IgG1, kappa)
heavy: not shown
light: B1 light
notes: both H chains altered; also called Ho Ab I332_06M
B10: GpH7-B3 variant A330_07I/GpL16-k0 (antibody, human IgG1, kappa)
heavy: not shown
light: B1 light
notes: both H chains altered; also called Ho Ab A330_07I
B11: GpH7-B3 variant L234_20W/GpL16-k0 (antibody, human IgG1, kappa)
heavy: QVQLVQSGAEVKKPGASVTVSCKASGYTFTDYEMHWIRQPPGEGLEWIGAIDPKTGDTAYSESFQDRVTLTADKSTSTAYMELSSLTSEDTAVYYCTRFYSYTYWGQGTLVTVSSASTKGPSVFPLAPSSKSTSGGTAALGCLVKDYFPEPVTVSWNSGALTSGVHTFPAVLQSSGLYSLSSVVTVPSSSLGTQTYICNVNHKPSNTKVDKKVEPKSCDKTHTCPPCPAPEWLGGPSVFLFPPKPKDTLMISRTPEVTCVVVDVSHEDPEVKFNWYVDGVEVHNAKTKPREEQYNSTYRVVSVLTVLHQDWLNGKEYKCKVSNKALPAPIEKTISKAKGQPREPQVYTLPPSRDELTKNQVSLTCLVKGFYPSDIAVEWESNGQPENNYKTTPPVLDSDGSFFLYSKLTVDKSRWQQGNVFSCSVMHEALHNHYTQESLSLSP
light: B1 light
notes: both H chains altered; also called Ho Ab L234_20W
B12: GpH7-B3 variant E333_04F/GpL16-k0 (antibody, human IgG1, kappa)
heavy: not shown
light: B1 light
notes: both H chains altered; also called Ho Ab E333_04F
B13: GpH7-B3 variant L234_15Y/GpL16-k0 (antibody, human IgG1, kappa)
heavy: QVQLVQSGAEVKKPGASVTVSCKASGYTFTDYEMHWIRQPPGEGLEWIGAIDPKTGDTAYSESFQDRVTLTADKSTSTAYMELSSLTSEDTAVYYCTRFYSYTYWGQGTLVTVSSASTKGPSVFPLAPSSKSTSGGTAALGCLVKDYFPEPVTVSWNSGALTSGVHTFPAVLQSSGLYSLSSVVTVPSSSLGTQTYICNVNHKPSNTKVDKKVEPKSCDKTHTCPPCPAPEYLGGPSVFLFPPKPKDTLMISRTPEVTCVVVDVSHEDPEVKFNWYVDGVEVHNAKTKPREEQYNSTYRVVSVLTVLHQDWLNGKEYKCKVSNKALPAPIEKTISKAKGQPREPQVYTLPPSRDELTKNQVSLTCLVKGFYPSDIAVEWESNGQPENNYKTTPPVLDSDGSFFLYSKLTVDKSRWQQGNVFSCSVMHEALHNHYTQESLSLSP
light: B1 light
notes: both H chains altered; also called Ho Ab L234_15Y
B14: GpH7-B3 variant P238_09D/GpL16-k0 (antibody, human IgG1, kappa)
heavy: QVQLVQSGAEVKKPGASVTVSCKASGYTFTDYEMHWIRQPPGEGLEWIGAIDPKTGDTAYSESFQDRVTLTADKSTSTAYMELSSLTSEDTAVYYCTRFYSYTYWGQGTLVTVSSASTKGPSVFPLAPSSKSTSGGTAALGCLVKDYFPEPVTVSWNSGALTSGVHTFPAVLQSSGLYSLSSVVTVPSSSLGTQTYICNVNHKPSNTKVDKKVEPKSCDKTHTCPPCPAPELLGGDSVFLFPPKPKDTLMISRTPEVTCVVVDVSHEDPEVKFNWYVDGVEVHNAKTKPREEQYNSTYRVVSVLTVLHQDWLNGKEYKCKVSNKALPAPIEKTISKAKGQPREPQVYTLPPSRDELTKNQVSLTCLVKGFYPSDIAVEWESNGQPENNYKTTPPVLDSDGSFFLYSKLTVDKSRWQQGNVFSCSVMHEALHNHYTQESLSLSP
light: B1 light
notes: both H chains altered; also called Ho Ab P238_09D
B15: GpH7-B3 variant G236_15Y/GpL16-k0 (antibody, human IgG1, kappa)
heavy: not shown
light: B1 light
notes: both H chains altered; also called Ho Ab G236_15Y
B16: GpH7-B3 variant S337_04F/GpL16-k0 (antibody, human IgG1, kappa)
heavy: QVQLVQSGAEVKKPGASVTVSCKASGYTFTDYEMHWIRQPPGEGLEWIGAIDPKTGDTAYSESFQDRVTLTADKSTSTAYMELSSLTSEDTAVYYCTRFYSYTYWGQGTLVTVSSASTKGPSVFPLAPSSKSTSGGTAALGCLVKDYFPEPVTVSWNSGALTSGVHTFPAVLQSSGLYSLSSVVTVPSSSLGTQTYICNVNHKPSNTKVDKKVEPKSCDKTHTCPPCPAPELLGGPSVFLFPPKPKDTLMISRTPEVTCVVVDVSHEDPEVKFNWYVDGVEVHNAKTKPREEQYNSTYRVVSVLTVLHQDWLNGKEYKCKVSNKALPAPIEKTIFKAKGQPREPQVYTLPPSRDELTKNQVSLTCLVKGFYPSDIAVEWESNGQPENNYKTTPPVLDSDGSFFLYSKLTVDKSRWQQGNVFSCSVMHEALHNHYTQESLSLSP
light: B1 light
notes: both H chains altered; also called Ho Ab S337_04F
B17: GpH7-B3 variant S324_02A/GpL16-k0 (antibody, human IgG1, kappa)
heavy: not shown
light: B1 light
notes: both H chains altered; also called Ho Ab S324_02A
B18: GpH7-B3 variant G236_20W/GpL16-k0 (antibody, human IgG1, kappa)
heavy: not shown
light: B1 light
notes: both H chains altered; also called Ho Ab G236_20W
B19: GpH7-B3 variant P238_10E/GpL16-k0 (antibody, human IgG1, kappa)
heavy: not shown
light: B1 light
notes: both H chains altered; also called Ho Ab P238_10E
B20: GpH7-B3 variant E333_02A/GpL16-k0 (antibody, human IgG1, kappa)
heavy: not shown
light: B1 light
notes: both H chains altered; also called Ho Ab E333_02A
B21: GpH7-B3 variant I336_08L/GpL16-k0 (antibody, human IgG1, kappa)
heavy: not shown
light: B1 light
notes: both H chains altered; also called Ho Ab I336_08L
B22: GpH7-B3 variant S337_14T/GpL16-k0 (antibody, human IgG1, kappa)
heavy: not shown
light: B1 light
notes: both H chains altered; also called Ho Ab S337_14T
B23: GpH7-B3 variant L234_07I/GpL16-k0 (antibody, human IgG1, kappa)
heavy: not shown
light: B1 light
notes: both H chains altered; also called Ho Ab L234_07I
B24: GpH7-A5/GpH7-B3 variant T335_16H/GpL16-k0 (antibody, human IgG1, kappa)
heavy 1: not shown
heavy 2: not shown
light: B1 light
notes: heterodimerized IgG1, mutation in one H chain only; also called He Ab
B25: GpH7-A5/GpH7-B3 variant Y300_08L/GpL16-k0 (antibody, human IgG1, kappa)
heavy 1: not shown
heavy 2: not shown
light: B1 light
notes: as for B24
B26: GpH7-A5/GpH7-B3 variant Y296_11K/GpL16-k0 (antibody, human IgG1, kappa)
heavy 1: not shown
heavy 2: not shown
light: B1 light
notes: as for B24
B27: GpH7-A5/GpH7-B3 variant T335_09D/GpL16-k0 (antibody, human IgG1, kappa)
heavy 1: not shown
heavy 2: not shown
light: B1 light
notes: as for B24
B28: GpH7-A5/GpH7-B3 variant S337_15Y/GpL16-k0 (antibody, human IgG1, kappa)
heavy 1: not shown
heavy 2: not shown
light: B1 light
notes: as for B24
B29: GpH7-A5/GpH7-B3 variant Y300_14T/GpL16-k0 (antibody, human IgG1, kappa)
heavy 1: not shown
heavy 2: not shown
light: B1 light
notes: as for B24
B30: GpH7-A5/GpH7-B3 variant Y300_11K/GpL16-k0 (antibody, human IgG1, kappa)
heavy 1: not shown
heavy 2: not shown
light: B1 light
notes: as for B24
B31: GpH7-A5/GpH7-B3 variant T335_19Q/GpL16-k0 (antibody, human IgG1, kappa)
heavy 1: not shown
heavy 2: not shown
light: B1 light
notes: as for B24
B32: GpH7-A5/GpH7-B3 variant Y296_06M/GpL16-k0 (antibody, human IgG1, kappa)
heavy 1: not shown
heavy 2: not shown
light: B1 light
notes: as for B24
B33: GpH7-A5/GpH7-B3 variant S337_04F/GpL16-k0 (antibody, human IgG1, kappa)
heavy 1: not shown
heavy 2: not shown
light: B1 light
notes: as for B24
B34: GpH7-A5/GpH7-B3 variant T335_18N/GpL16-k0 (antibody, human IgG1, kappa)
heavy 1: not shown
heavy 2: not shown
light: B1 light
notes: as for B24
B35: GpH7-A5/GpH7-B3 variant Y300_03V/GpL16-k0 (antibody, human IgG1, kappa)
heavy 1: not shown
heavy 2: not shown
light: B1 light
notes: as for B24
B36: GpH7-A5/GpH7-B3 variant T335_10E/GpL16-k0 (antibody, human IgG1, kappa)
heavy 1: not shown
heavy 2: not shown
light: B1 light
notes: as for B24
B37: GpH7-A5/GpH7-B3 variant Y300_19Q/GpL16-k0 (antibody, human IgG1, kappa)
heavy 1: not shown
heavy 2: not shown
light: B1 light
notes: as for B24
B38: GpH7-A5/GpH7-B3 variant T335_20W/GpL16-k0 (antibody, human IgG1, kappa)
heavy 1: not shown
heavy 2: not shown
light: B1 light
notes: as for B24
B39: GpH7-A5/GpH7-B3 variant T335_15Y/GpL16-k0 (antibody, human IgG1, kappa)
heavy 1: not shown
heavy 2: not shown
light: B1 light
notes: as for B24
B40: GpH7-A5/GpH7-B3 variant T335_08L/GpL16-k0 (antibody, human IgG1, kappa)
heavy 1: not shown
heavy 2: not shown
light: B1 light
notes: as for B24
B41: GpH7-A5/GpH7-B3 variant S337_09D/GpL16-k0 (antibody, human IgG1, kappa)
heavy 1: not shown
heavy 2: not shown
light: B1 light
notes: as for B24
B42: GpH7-A5/GpH7-B3 variant S337_10E/GpL16-k0 (antibody, human IgG1, kappa)
heavy 1: not shown
heavy 2: not shown
light: B1 light
notes: as for B24
B43: GpH7-A5/GpH7-B3 variant Y300_06M/GpL16-k0 (antibody, human IgG1, kappa)
heavy 1: not shown
heavy 2: not shown
light: B1 light
notes: as for B24
B44: GpH7-A5/GpH7-B3 variant Y300_13S/GpL16-k0 (antibody, human IgG1, kappa)
heavy 1: not shown
heavy 2: not shown
light: B1 light
notes: as for B24
B45: GpH7-A5/GpH7-B3 variant Y300_02A/GpL16-k0 (antibody, human IgG1, kappa)
heavy 1: not shown
heavy 2: not shown
light: B1 light
notes: as for B24
B46: GpH7-A5/GpH7-B3 variant S337_07I/GpL16-k0 (antibody, human IgG1, kappa)
heavy 1: not shown
heavy 2: not shown
light: B1 light
notes: as for B24
B47: GpH7-A5/GpH7-B3 variant S337_20W/GpL16-k0 (antibody, human IgG1, kappa)
heavy 1: not shown
heavy 2: not shown
light: B1 light
notes: as for B24
B48: GpH7-A5/GpH7-B3 variant Y296_12R/GpL16-k0 (antibody, human IgG1, kappa)
heavy 1: not shown
heavy 2: not shown
light: B1 light
notes: as for B24
B49: GpH7-A5/GpH7-B3 variant T335_12R/GpL16-k0 (antibody, human IgG1, kappa)
heavy 1: not shown
heavy 2: not shown
light: B1 light
notes: as for B24
B50: GpH7-A5/GpH7-B3 variant S337_19Q/GpL16-k0 (antibody, human IgG1, kappa)
heavy 1: not shown
heavy 2: not shown
light: B1 light
notes: as for B24
B51: GpH7-A5/GpH7-B3 variant Y300_20W/GpL16-k0 (antibody, human IgG1, kappa)
heavy 1: not shown
heavy 2: not shown
light: B1 light
notes: as for B24
B52: GpH7-A5/GpH7-B3 variant S337_06M/GpL16-k0 (antibody, human IgG1, kappa)
heavy 1: not shown
heavy 2: not shown
light: B1 light
notes: as for B24
B53: GpH7-A5/GpH7-B3 variant S337_08L/GpL16-k0 (antibody, human IgG1, kappa)
heavy 1: not shown
heavy 2: not shown
light: B1 light
notes: as for B24
B54: GpH7-A5/GpH7-B3 variant T335_11K/GpL16-k0 (antibody, human IgG1, kappa)
heavy 1: not shown
heavy 2: not shown
light: B1 light
notes: as for B24
B55: GpH7-A5/GpH7-B3 variant T335_06M/GpL16-k0 (antibody, human IgG1, kappa)
heavy 1: not shown
heavy 2: not shown
light: B1 light
notes: as for B24
B56: GpH7-A5/GpH7-B3 variant Y296_16H/GpL16-k0 (antibody, human IgG1, kappa)
heavy 1: not shown
heavy 2: not shown
light: B1 light
notes: as for B24
B57: GpH7-A5/GpH7-B3 variant T335_05P/GpL16-k0 (antibody, human IgG1, kappa)
heavy 1: not shown
heavy 2: not shown
light: B1 light
notes: as for B24
B58: GpH7-A5/GpH7-B3 variant T335_07I/GpL16-k0 (antibody, human IgG1, kappa)
heavy 1: not shown
heavy 2: not shown
light: B1 light
notes: as for B24
B59: GpH7-A5/GpH7-B3 variant Y296_20W/GpL16-k0 (antibody, human IgG1, kappa)
heavy 1: not shown
heavy 2: not shown
light: B1 light
notes: as for B24

What follows are binders tested against FcγRIIIa extracellular domain with C-terminal His tag (human, UniProt P08637 17-208) (assay: SPR (Biacore), both H chains altered; HoCon Ab GpH7-B3/GpL16-k0 = 100).
FcγRIIIa extracellular domain with C-terminal His tag, sequence (P08637 17-208): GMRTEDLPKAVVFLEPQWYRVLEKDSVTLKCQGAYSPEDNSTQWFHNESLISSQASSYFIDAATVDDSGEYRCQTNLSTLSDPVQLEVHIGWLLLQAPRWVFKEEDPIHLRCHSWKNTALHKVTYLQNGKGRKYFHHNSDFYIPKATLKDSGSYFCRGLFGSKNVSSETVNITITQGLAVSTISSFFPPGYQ

| Ho/Con_3a [%] | Binder |
| --- | --- |
| 56.6 | B1 |
| 86.5 | B2 |
| 90.9 | B3 |
| 52.8 | B4 |
| 49.9 | B5 |
| 90.3 | B6 |
| 88 | B7 |
| 95.1 | B8 |
| 95.4 | B9 |
| 93 | B10 |
| 37.1 | B11 |
| 87.1 | B12 |
| 64.7 | B13 |
| -0.1 | B14 |
| 41.6 | B15 |
| 95.6 | B16 |
| 99.8 | B17 |
| 58.3 | B18 |
| 0.8 | B19 |
| 93.3 | B20 |
| 95.8 | B21 |
| 97.2 | B22 |
| 98.2 | B23 |

The binders below were run against T1, FcγRIa (human, UniProt P12314 16-292) (assay: SPR (Biacore), captured antibody, FcγRIa analyte; relative to GpH7-A5/GpH7-B3/GpL16-k0).
T1 construct: extracellular domain; soluble His-tagged extracellular domain expressed in FreeStyle293 cells, used as analyte in Biacore; also called FcgRI; CD64
T1 sequence (P12314 16-292): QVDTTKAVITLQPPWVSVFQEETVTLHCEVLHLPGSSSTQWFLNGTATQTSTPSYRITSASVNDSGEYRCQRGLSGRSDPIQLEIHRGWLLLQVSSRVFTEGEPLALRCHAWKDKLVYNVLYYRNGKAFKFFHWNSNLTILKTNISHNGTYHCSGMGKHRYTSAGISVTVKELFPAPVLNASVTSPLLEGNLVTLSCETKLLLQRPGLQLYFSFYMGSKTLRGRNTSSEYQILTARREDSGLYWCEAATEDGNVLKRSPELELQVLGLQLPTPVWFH

| He/Con_1a | Binder |
| --- | --- |
| 106 relative, control = 100 | B24 |
| 113 relative, control = 100 | B25 |
| 105 relative, control = 100 | B26 |
| 108 relative, control = 100 | B27 |
| 104 relative, control = 100 | B28 |
| 112 relative, control = 100 | B29 |
| 107 relative, control = 100 | B30 |
| 105 relative, control = 100 | B31 |
| 104 relative, control = 100 | B32 |
| 106 relative, control = 100 | B33 |
| 106 relative, control = 100 | B34 |
| 117 relative, control = 100 | B35 |
| 109 relative, control = 100 | B36 |
| 112 relative, control = 100 | B37 |
| 106 relative, control = 100 | B38 |
| 107 relative, control = 100 | B39 |
| 115 relative, control = 100 | B40 |
| 106 relative, control = 100 | B41 |

| He/Con_1a | Binder |
| --- | --- |
| 106 relative, control = 100 | B42 |
| 112 relative, control = 100 | B43 |
| 111 relative, control = 100 | B44 |
| 112 relative, control = 100 | B45 |
| 105 relative, control = 100 | B46 |
| 105 relative, control = 100 | B47 |
| 106 relative, control = 100 | B48 |
| 113 relative, control = 100 | B49 |
| 105 relative, control = 100 | B50 |
| 112 relative, control = 100 | B51 |
| 107 relative, control = 100 | B52 |
| 105 relative, control = 100 | B53 |
| 111 relative, control = 100 | B54 |
| 107 relative, control = 100 | B55 |
| 106 relative, control = 100 | B56 |
| 106 relative, control = 100 | B57 |
| 109 relative, control = 100 | B58 |
| 111 relative, control = 100 | B59 |

— patent publication US20150344570A1 (published 2015)
